According to patent publication US10407662B2, “Method of culturing pluripotent stem cell, and polypeptide to be used therefor” (FUJIFILM Corporation, priority 2012, dated 2019):

Key:
Assay type in all cases: cell-based
human iPS cells [1] = assay: Cell Adhesiveness Evaluation 2 (synthetic peptide inhibition of cell adhesion to natural vitronectin); conditions: 100 μM synthetic peptide
Method: Polypeptides listed in Table 7 were synthesized by Emoc solid phase synthesis. A surface to which natural vitronectin was adsorbed at a concentration of 130 pmol/m^2, and thereafter, a cell suspension to which 100 μM of the above-described synthetic peptide was added was seeded at a rate of 30,000 cells/well. The number of adherent cells after 24 h post seeding was calculated by the same technique as in <Cell Adhesiveness Evaluation 1>.

human iPS cells [2] = assay: Proliferation Evaluation of iPS cells on polypeptide-coated plate; conditions: for The Number (%) of Cells after 3 Days: 5000 cells/well
Method: The iPS cells collected in the same manner as in <Cell Adhesiveness Evaluation 1>described above were seeded on a 96-well plate, to which RCP-1, RCP-11, and the natural human vitronectin were adsorbed, at a rate of 250 cells/well, and were cultured in a 5% CO2 incubator at 37° C. for 8 days. The number of adherent cells after each lapse of time was measured by the same method as in <Cell Adhesiveness Evaluation 1> described above, to obtain proliferation curves, The proliferation curves were indicated in FIG. 2. In FIG. 2, a black rhombus represents an example in which RCP-1 was used, while a black tetragon represents an example in which RCP-11 was used.
Similarly, each of samples from […] was prepared so as to have an addition concentration listed in Table 8 with each of from RCP-1 to RCP-10, and RCP-17, and Human Recombinant Laminin-511 as a reference, was seeded on a 96-well plate, to which each polypeptide was adsorbed, at a rate of 5000 cells/well in the same manner as in<Cell Adhesiveness Evaluation 1> described above, and was cultured in a CO2 incubator at 37° C. for 3 days. The number of cells after the 3 days was measured by the same method as in <Cell Adhesiveness Evaluation 1> described above.

human iPS cells [3] = assay: Evaluation of Maintenance of Undifferentiation (colony form, NANOG staining); conditions: for form of iPS cell colonies: FIG. 3, TESR2, subculture every six days; for NANOG expression (immunostaining): FIG. 4; for NANOG expression (immunostaining) / maintenance of undifferentiated state: cultured for 1 month
Method: iPS cells collected in the same manner as in <Cell Adhesiveness Evaluation 1> described above were suspended in TESR2. Induced pluripotent stem cells (iPS cells) were seeded on a 6-well plate (Tissue Culture-Treated, Falcon) to which each of the sample 1, the sample 2, the sample 5, the sample 6, and the sample 7 used in <Cell Adhesiveness Evaluation 1> described above was adsorbed in the same manner as in <Cell Adhesiveness Evaluation 1>, and were cultured in a CO2 incubator at 37° C. The culture medium was replaced by a fresh culture medium every day except the next day after the seeding. Subculture was performed by the same method as mentioned above every six days.
The cells were cultured under these conditions for 1 month, thereafter immobilized with 4% paraformaldehyde, and made to have membrane permeability enhanced with 1% Triton-X/PBS. Blocking treatment was performed with an Image IT Signal Enhancer (Invitrogen), followed by adding an anti-human NANOG antibody (AF1997, R&D Systems, Inc), ALEXA FLUOR 555-CONJUGATE rabbit anti-goat IgG antibody (Invitrogen), and DAPI (Dojindo Laboratories), by performing labeling, and by photographing the cells with a fluorescence microscope.
In each of FIG. 3 and FIG. 4, “A”, “B”, “C” “D”, and “E” show iPS cells cultured on RCP-1, iPS cells cultured on RCP-11, iPS cells cultured on the natural human vitronectin, iPS cells cultured on rinaminin-5, and iPS cells cultured on rLaminin-511, respectively. Scale bar: 100 μm. In FIG. 3, overall colony images are shown in the left column, while magnified images are shown in the right column; and in FIG. 4, DAPI-stained images are shown in the left column while anti-NANOG antibody-stained images are shown in the right column. Scale bars in FIGS. 3 and 4: 200 μm.

## CCTDYTAECKPQVTRGDVFT [Peptide-5]
Human iPS cells [1]
  inhibition of cell adhesion to natural vitronectin (in words): significantly inhibited

## CCTDYTAECKPQVTRGEVFT [Peptide-7]
Human iPS cells [1]
  inhibition of cell adhesion to natural vitronectin (in words): adhesion inhibition did not occur

## DKKCQCDELCSYYQSCCTDY [Peptide-4]
Human iPS cells [1]
  inhibition of cell adhesion to natural vitronectin (in words): significantly inhibited

## DQESCKGRCTEGFNVDKKCQ [Peptide-1]
Human iPS cells [1]
  inhibition of cell adhesion to natural vitronectin (in words): adhesion inhibition did not occur

## EGFNVDKKCQCDELCSYYQS [Peptide-3]
Human iPS cells [1]
  inhibition of cell adhesion to natural vitronectin (in words): adhesion inhibition did not occur

## KGRCTEGFNVDKKCQCDELC [Peptide-2]
Human iPS cells [1]
  inhibition of cell adhesion to natural vitronectin (in words): adhesion inhibition did not occur

## Laminin-511: recombinant laminin (Human Recombinant Laminin-511: Biolamina)
Human iPS cells [2]; addition amount 1.28 μg/cm^2
  The Number (%) of Cells after 3 Days: 56.8%

B1: RCP-17: recombinant polypeptide, Met + SEQ ID NO:38; vitronectin positions 1-55, 269-277, 295-341, 342-373, C274S (printed as RCP-11 in Table 2) (protein)
chain: MDQESCKGRCTEGFNVDKKCQCDELCSYYQSCCTDYTAECKPQVTRGDVFTMPEDESQEESEGSEDIFELLFWGRTSAGTRQPQFISRDWHGVPGQVDAAMAGRIYISGMAPRPSLAKKQRFRHRNRKGYRSQRGHSRGRNQN
modifications: Synthetic Peptide RCP-17
Human iPS cells [2]; addition amount 5 μg/cm^2
  The Number (%) of Cells after 3 Days: 153.5%

B2: RCP-11: comparative recombinant polypeptide, GPLG + positions 1-459; corresponds to the sequence of natural human vitronectin (protein)
chain: GPLGDQESCKGRCTEGFNVDKKCQCDELCSYYQSCCTDYTAECKPQVTRGDVFTMPEDEYTVYDDGEEKNNATVHEQVGGPSLTSDLQAQSKGNPEQTPVLKPEEEAPAPEVGASKPEGIDSRPETLHPGRPQPPAEEELCSGKPFDAFTDLKNGSLFAFRGQYCYELDEKAVRPGYPKLIRDVWGIEGPIDAAFTRINCQGKTYLFKGSQYWRFEDGVLDPDYPRNISDGFDGIPDNVDAALALPAHSYSGRERVYFFKGKQYWEYQFQHQPSQEECEGSSLSAVFEHFAMMQRDSWEDIFELLFWGRTSAGTRQPQFISRDWHGVPGQVDAAMAGRIYISGMAPRPSLAKKQRFRHRNRKGYRSQRGHSRGRNQNSRRPSRATWLSLFSSEESNLGANNYDDYRMDWLVPATCEPIQSVFFFSGDKYYRVNLRTRRVDTVDPPYPRSIAQYWLGCPAPGHL
modifications: Synthetic Peptide CRP-11
Human iPS cells [2]; culture day 8, FIG. 2
  number of cells smaller than that of RCP-1, as fraction of RCP-1: around ⅓
Human iPS cells [3]
  form of iPS cell colonies: homogeneous colony and a form characteristic for undifferentiated cells having a high nucleus occupying rate
  NANOG expression (immunostaining): strongly expressed NANOG in an overall colony
  maintenance of undifferentiated state: undifferentiated state was favorably maintained

B3: RCP-5: recombinant polypeptide, Met + human vitronectin positions 1-55, 302-341, 342-373 (protein)
chain: MDQESCKGRCTEGFNVDKKCQCDELCSYYQSCCTDYTAECKPQVTRGDVFTMPEDEFWGRTSAGTRQPQFISRDWHGVPGQVDAAMAGRIYISGMAPRPSLAKKQRFRHRNRKGYRSQRGHSRGRNQN
modifications: Synthetic Peptide RCP-5
Human iPS cells [2]; addition amount 10 μg/cm^2
  The Number (%) of Cells after 3 Days: 121.2%

B4: Natural vitronectin: human vitronectin (extracted from human plasma, BD Biosciences) (protein, listed as Homo sapiens)
chain: DQESCKGRCTEGFNVDKKCQCDELCSYYQSCCTDYTAECKPQVTRGDVFTMPEDEYTVYDDGEEKNNATVHEQVGGPSLTSDLQAQSKGNPEQTPVLKPEEEAPAPEVGASKPEGIDSRPETLHPGRPQPPAEEELCSGKPFDAFTDLKNGSLFAFRGQYCYELDEKAVRPGYPKLIRDVWGIEGPIDAAFTRINCQGKTYLFKGSQYWRFEDGVLDPDYPRNISDGFDGIPDNVDAALALPAHSYSGRERVYFFKGKQYWEYQFQHQPSQEECEGSSLSAVFEHFAMMQRDSWEDIFELLFWGRTSAGTRQPQFISRDWHGVPGQVDAAMAGRIYISGMAPRPSLAKKQRFRHRNRKGYRSQRGHSRGRNQNSRRPSRATWLSLFSSEESNLGANNYDDYRMDWLVPATCEPIQSVFFFSGDKYYRVNLRTRRVDTVDPPYPRSIAQYWLGCPAPGHL
modifications: glycosylated, plasma-derived
Human iPS cells [3]
  form of iPS cell colonies: homogeneous colony and a form characteristic for undifferentiated cells having a high nucleus occupying rate
  NANOG expression (immunostaining): strongly expressed NANOG in an overall colony
  maintenance of undifferentiated state: undifferentiated state was favorably maintained

B5: RCP-7: recombinant polypeptide, Met + human vitronectin positions 1-55, 269-373, C274S (protein)
chain: MDQESCKGRCTEGFNVDKKCQCDELCSYYQSCCTDYTAECKPQVTRGDVFTMPEDESQEESEGSSLSAVFEHFAMMQRDSWEDIFELLFWGRTSAGTRQPQFISRDWHGVPGQVDAAMAGRIYISGMAPRPSLAKKQRFRHRNRKGYRSQRGHSRGRNQN
modifications: Synthetic Peptide RCP-7
notes: recombinant polypeptide, Met + human vitronectin positions 1-55, 269-373, C274S
Human iPS cells [2]; addition amount 5 μg/cm^2
  The Number (%) of Cells after 3 Days: 89.9%

B6: RCP-8: recombinant polypeptide, Met + human vitronectin positions 1-55, 269-373, 374-379, C274S (protein)
chain: MDQESCKGRCTEGFNVDKKCQCDELCSYYQSCCTDYTAECKPQVTRGDVFTMPEDESQEESEGSSLSAVFEHFAMMQRDSWEDIFELLFWGRTSAGTRQPQFISRDWHGVPGQVDAAMAGRIYISGMAPRPSLAKKQRFRHRNRKGYRSQRGHSRGRNQNSRRPSR
modifications: Synthetic Peptide RCP-8
notes: recombinant polypeptide, Met + human vitronectin positions 1-55, 269-373, 374-379, C274S
Human iPS cells [2]; addition amount 5 μg/cm^2
  The Number (%) of Cells after 3 Days: 171.0%

B7: RCP-6: recombinant polypeptide, Met + human vitronectin positions 1-55, 269-459, C274S (protein)
chain: MDQESCKGRCTEGFNVDKKCQCDELCSYYQSCCTDYTAECKPQVTRGDVFTMPEDESQEESEGSSLSAVFEHFAMMQRDSWEDIFELLFWGRTSAGTRQPQFISRDWHGVPGQVDAAMAGRIYISGMAPRPSLAKKQRFRHRNRKGYRSQRGHSRGRNQNSRRPSRATWLSLFSSEESNLGANNYDDYRMDWLVPATSEPIQSVFFFSGDKYYRVNLRTRRVDTVDPPYPRSIAQYWLGSPAPGHL
modifications: Synthetic Peptide RCP-6
notes: recombinant polypeptide, Met + human vitronectin positions 1-55, 269-459, C274S
Human iPS cells [2]; addition amount 20 μg/cm^2
  The Number (%) of Cells after 3 Days: 70.5%

B8: RCP-2: recombinant polypeptide, Met + human vitronectin positions 1-55, 342-373 (protein)
chain: MDQESCKGRCTEGFNVDKKCQCDELCSYYQSCCTDYTAECKPQVTRGDVFTMPEDEPRPSLAKKQRFRHRNRKGYRSQRGHSRGRNQN
modifications: Synthetic Peptide RCP-2
Human iPS cells [2]; addition amount 20 μg/cm^2
  The Number (%) of Cells after 3 Days: 81.7%

B9: RCP-3: recombinant polypeptide, Met + human vitronectin positions 1-55, 322-341, 342-373 (protein)
chain: MDQESCKGRCTEGFNVDKKCQCDELCSYYQSCCTDYTAECKPQVTRGDVFTMPEDEGVPGQVDAAMAGRIYISGMAPRPSLAKKQRFRHRNRKGYRSQRGHSRGRNQN
modifications: Synthetic Peptide RCP-3
Human iPS cells [2]; addition amount 20 μg/cm^2
  The Number (%) of Cells after 3 Days: 109.7%

B10: RCP-4: recombinant polypeptide, Met + human vitronectin positions 1-55, 312-341, 342-373 (protein)
chain: MDQESCKGRCTEGFNVDKKCQCDELCSYYQSCCTDYTAECKPQVTRGDVFTMPEDEQPQFISRDWHGVPGQVDAAMAGRIYISGMAPRPSLAKKQRFRHRNRKGYRSQRGHSRGRNQN
modifications: Synthetic Peptide RCP-4
Human iPS cells [2]; addition amount 20 μg/cm^2
  The Number (%) of Cells after 3 Days: 120.7%
